According to patent US20230145060A1:
Where two headings read alike, the source gives them in different places.

Key:
Assay in all cases: cell-based or functional assay
[1] = biological target: HIV-1 Env of pseudovirus X1632 (HIV-1)
[2] = biological target: HIV-1 Env of pseudovirus SF162 (HIV-1) (UniProt P19550)
[3] = biological target: HIV-1 Env of pseudovirus 278 (HIV-1)
[4] = biological target: HIV-1 Env of pseudovirus PV0 (HIV-1)
[5] = biological target: HIV-1 Env of pseudovirus 3817 (HIV-1)
[6] = biological target: HIV-1 Env of pseudovirus X2088 (HIV-1)
[7] = biological target: HIV-1 Env of pseudovirus THRO (HIV-1)
[8] = biological target: HIV-1 Env of pseudovirus Du422 (HIV-1)
[9] = biological target: HIV-1 Env of pseudovirus JRCSF (HIV-1) (UniProt P20871)
[10] = biological target: HIV-1 Env of pseudovirus BG505 (HIV-1)
[11] = biological target: HIV-1 Env of pseudovirus ZM106 (HIV-1)
[12] = biological target: HIV-1 Env of pseudovirus pCNE8 (HIV-1)
[13] = biological target: HIV-1 Env of pseudovirus ZM197 (HIV-1)
[14] = biological target: HIV-1 Env of pseudovirus T257 (HIV-1)
[15] = biological target: HIV-1 Env of pseudovirus X1632 (HIV-1); remark: listed apart in the source
[16] = biological target: HIV-1 Env of pseudovirus SF162 (HIV-1) (UniProt P19550); remark: listed apart in the source
[17] = biological target: HIV-1 Env of pseudovirus 278 (HIV-1); remark: listed apart in the source
[18] = biological target: HIV-1 Env of pseudovirus PV0 (HIV-1); remark: listed apart in the source
[19] = biological target: HIV-1 Env of pseudovirus 3817 (HIV-1); remark: listed apart in the source
[20] = biological target: HIV-1 Env of pseudovirus X2088 (HIV-1); remark: listed apart in the source
[21] = biological target: HIV-1 Env of pseudovirus THRO (HIV-1); remark: listed apart in the source
[22] = biological target: HIV-1 Env of pseudovirus Du422 (HIV-1); remark: listed apart in the source
[23] = biological target: HIV-1 Env of pseudovirus JRCSF (HIV-1) (UniProt P20871); remark: listed apart in the source
[24] = biological target: HIV-1 Env of pseudovirus BG505 (HIV-1); remark: listed apart in the source
[25] = biological target: HIV-1 Env of pseudovirus ZM106 (HIV-1); remark: listed apart in the source
[26] = biological target: HIV-1 Env of pseudovirus pCNE8 (HIV-1); remark: listed apart in the source
[27] = biological target: HIV-1 Env of pseudovirus ZM197 (HIV-1); remark: listed apart in the source
[28] = biological target: HIV-1 Env of pseudovirus T257 (HIV-1); remark: listed apart in the source

Row | Substance | IC50, neutralization of X1632 PsV [1] [µg/mL] | IC50, neutralization of 278 PsV [3] [µg/mL] | IC50, neutralization of PV0 PsV [4] [µg/mL] | IC50, neutralization of 3817 PsV [5] [µg/mL] | IC50, neutralization of X2088 PsV [6] [µg/mL] | IC50, neutralization of THRO PsV [7] [µg/mL] | IC50, neutralization of Du422 PsV [8] [µg/mL] | IC50, neutralization of JRCSF PsV [9] [µg/mL] | IC50, neutralization of BG505 PsV [10] [µg/mL] | IC50, neutralization of ZM106 PsV [11] [µg/mL] | IC50, neutralization of pCNE8 PsV [12] [µg/mL] | IC50, neutralization of ZM197 PsV [13] [µg/mL] | IC50, neutralization of T257 PsV [14] [µg/mL] | IC50, neutralization of X1632 PsV [15] [nM] | IC50, neutralization of SF162 PsV [16] [nM] | IC50, neutralization of 278 PsV [17] [nM] | IC50, neutralization of PV0 PsV [18] [nM] | IC50, neutralization of 3817 PsV [19] [nM] | IC50, neutralization of X2088 PsV [20] [nM] | IC50, neutralization of THRO PsV [21] [nM] | other results
1 | N6/PGDM1400x10E8v4 trispecific antibody | 0.03 | 1.2 | 1.3 | 1.2 | 0.56 | 0.31 | 0.19 | 0.026 | 0.059 | 0.017 | 0.024 | 0.073 | 0.028 | 0.17 | 1.9 | 7.1 | 7.2 | 6.7 | 3.2 | 1.7 | IC50, neutralization of SF162 PsV [2]: 0.33 µg/mL; IC50, neutralization of Du422 PsV [22]: 1.1 nM; IC50, neutralization of JRCSF PsV [23]: 0.15 nM; IC50, neutralization of BG505 PsV [24]: 0.34 nM; IC50, neutralization of ZM106 PsV [25]: 0.1 nM; IC50, neutralization of pCNE8 PsV [26]: 0.14 nM; IC50, neutralization of ZM197 PsV [27]: 0.42 nM; IC50, neutralization of T257 PsV [28]: 0.16 nM
2 | 32-I multabody (PGDM1400 scFab-human apoferritin : scFc-N-Ferritin : iMab A12P scFab-C-Ferritin : 10E8v4 scFab-C-Ferritin, 4:2:1:1) | 0.008 | 0.008 | 0.12 | 1.8 | 3.1 | 0.033 | 0.7 | 0.004 | 0.0026 | 0.0031 | 0.0013 | 0.0044 | 0.0015 | 0.0034 | 1.1 | 0.0035 | 0.052 | 0.79 | 1.3 | 0.014 | IC50, neutralization of SF162 PsV [2]: 2.5 µg/mL; IC50, neutralization of Du422 PsV [22]: 0.31 nM; IC50, neutralization of JRCSF PsV [23]: 0.0017 nM; IC50, neutralization of BG505 PsV [24]: 0.0011 nM; IC50, neutralization of ZM106 PsV [25]: 0.0014 nM; IC50, neutralization of pCNE8 PsV [26]: 0.57 pM; IC50, neutralization of ZM197 PsV [27]: 0.0019 nM; IC50, neutralization of T257 PsV [28]: 0.00068 nM
3 | 32-N multabody (PGDM1400 scFab-human apoferritin : scFc-N-Ferritin : N49P7 scFab-C-Ferritin : 10E8v4 scFab-C-Ferritin, 4:2:1:1) | 0.0045 | 0.009 | 0.33 | 9.1 | 5.2 | 0.058 | 2.5 | 0.0054 | 0.0045 | 0.0089 | 0.0032 | 0.0096 | 0.0037 | 0.002 | 0.58 | 0.0039 | 0.15 | 3.9 | 2.3 | 0.025 | IC50, neutralization of SF162 PsV [2]: 1.3 µg/mL; IC50, neutralization of Du422 PsV [22]: 1.08 nM; IC50, neutralization of JRCSF PsV [23]: 0.0023 nM; IC50, neutralization of BG505 PsV [24]: 0.0019 nM; IC50, neutralization of ZM106 PsV [25]: 0.0039 nM; IC50, neutralization of pCNE8 PsV [26]: 1.4 pM; IC50, neutralization of ZM197 PsV [27]: 0.0042 nM; IC50, neutralization of T257 PsV [28]: 0.0016 nM
4 | PGDM1400 IgG (antibody) | 0.018 | 0.16 | 1.3 | > 50 | > 50 | 0.09 | 6 | 0.0074 | 0.0032 | 0.013 | 0.0027 | 0.11 | 0.012 | 0.12 | > 100 | 1.1 | 8.4 | > 100 | > 100 | 0.61 | IC50, neutralization of SF162 PsV [2]: > 50 µg/mL; IC50, neutralization of Du422 PsV [22]: 40 nM; IC50, neutralization of JRCSF PsV [23]: 0.049 nM; IC50, neutralization of BG505 PsV [24]: 0.02 nM; IC50, neutralization of ZM106 PsV [25]: 0.084 nM; IC50, neutralization of pCNE8 PsV [26]: 18 pM; IC50, neutralization of ZM197 PsV [27]: 0.68 nM; IC50, neutralization of T257 PsV [28]: 0.08 nM
5 | 10E8v4 IgG (antibody) | 2.02 | 1.8 | 6.3 | 3.1 | > 50 | 0.37 | 0.55 | 1.8 | 1.4 | > 50 | 0.96 | 0.19 | 1.5 | 13 | 20 | 12 | 42 | 21 | > 100 | 2.5 | IC50, neutralization of Du422 PsV [22]: 3.7 nM; IC50, neutralization of JRCSF PsV [23]: 12 nM; IC50, neutralization of BG505 PsV [24]: 9 nM; IC50, neutralization of ZM106 PsV [25]: > 100 nM; IC50, neutralization of pCNE8 PsV [26]: 6.4 nM; IC50, neutralization of ZM197 PsV [27]: 1.3 nM; IC50, neutralization of T257 PsV [28]: 9.8 nM
6 | N49P7 IgG (antibody) | > 50 | > 50 | 0.28 | 3.3 | 0.38 | 7.5 | 10 | 0.12 | 0.21 | 0.18 | 0.28 | 0.58 | 1.2 | > 100 | 1 | > 100 | 1.9 | 22 | 2.5 | 50 | IC50, neutralization of SF162 PsV [2]: 0.15 µg/mL; IC50, neutralization of Du422 PsV [22]: 66 nM; IC50, neutralization of JRCSF PsV [23]: 0.85 nM; IC50, neutralization of BG505 PsV [24]: 1.4 nM; IC50, neutralization of ZM106 PsV [25]: 1.2 nM; IC50, neutralization of pCNE8 PsV [26]: 1.8 nM; IC50, neutralization of ZM197 PsV [27]: 3.9 nM; IC50, neutralization of T257 PsV [28]: 8.3 nM
